Assay results: the RNAGym collection of RNA variant scans (doi:10.1073/pnas.2313332121)

B1: TPR t1 (parent)
chain: GACCAAUCUGCCCUCAGAGCUCGAGAACAUCUUCGGAUGCAGAGGAGGCAGGCUUCGGUGGCGCGAUAGCGCCAACGUCCUCAACCUCCAAUGCAUCCCACCACAUGAUGAUGCCUGAAGAGCCUUGGUUUUUUG

Variants of: B1
Test: polymerase ribozyme fitness, log enrichment relative to wild type (log ratio); higher = more active; in vitro selection for triplet polymerase activity
Outline: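 In triplicate, a single round of in vitro selection was run on each mutant library, PCR-built and transcribed, covering one subunit of a heterodimeric triplet polymerase ribozyme. Frozen incubation at −7 °C followed annealing with a biotinylated primer, partner subunit and triplets, and extended constructs were then gel-excised, streptavidin-captured and taken through RT-PCR. Fitness is the logarithm of genotype enrichment over wild-type enrichment, from inverse-variance-weighted replicate averages of Illumina-sequenced inputs and outputs. […] only genotypes with ≥10 input reads and ≥1 read per output were kept.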
For C56U G69U G120U, the “polymerase ribozyme fitness (log ratio)” value was -1.89.
With U55C G61A the “polymerase ribozyme fitness (log ratio)” value was -0.329.
In the case of C56G C114U, the “polymerase ribozyme fitness (log ratio)” value is reported as -2.55.
In the case of C56G G127A G128A, the “polymerase ribozyme fitness (log ratio)” value is reported as -3.93.
In the case of G57C C114G U131C, the “polymerase ribozyme fitness (log ratio)” value is reported as -2.69.
In the case of C56U G77A, the “polymerase ribozyme fitness (log ratio)” value is reported as 0.388.
In the case of C56U G77C, the “polymerase ribozyme fitness (log ratio)” value is reported as -0.361.
For U55C G58A, the “polymerase ribozyme fitness (log ratio)” value was 0.121.
For U55G A95U A111C A121U G127C, the “polymerase ribozyme fitness (log ratio)” value was 0.185.
For C56G A66U A74C G122A, the “polymerase ribozyme fitness (log ratio)” value was -6.51.
For C56A C73G, the “polymerase ribozyme fitness (log ratio)” value was -2.34.
In the case of G58A C101G, the “polymerase ribozyme fitness (log ratio)” value is reported as -1.94.
With C56U A111G the “polymerase ribozyme fitness (log ratio)” value was 0.705.
In the case of G57U U116C, the “polymerase ribozyme fitness (log ratio)” value is reported as -1.31.
For U59A U81C U87A, the “polymerase ribozyme fitness (log ratio)” value was -1.17.
For C56A A83C, the “polymerase ribozyme fitness (log ratio)” value was -0.237.
With C56G C98U G110A the “polymerase ribozyme fitness (log ratio)” value was -1.9.
In the case of C56U A121U, the “polymerase ribozyme fitness (log ratio)” value is reported as 1.6.
In the case of C56G A91U A111C, the “polymerase ribozyme fitness (log ratio)” value is reported as -2.73.
In the case of C56G G69C A83C C104U G135A, the “polymerase ribozyme fitness (log ratio)” value is reported as -4.55.
In the case of C56U C73G G122A U130A, the “polymerase ribozyme fitness (log ratio)” value is reported as -2.91.
With U59A C64U C82G the “polymerase ribozyme fitness (log ratio)” value was -0.95.
In the case of C56A G61A G110U, the “polymerase ribozyme fitness (log ratio)” value is reported as -4.01.
For G58C G71U A74G C85A A90C, the “polymerase ribozyme fitness (log ratio)” value was -3.43.
In the case of G58A U59C C70G, the “polymerase ribozyme fitness (log ratio)” value is reported as -4.95.
In the case of G58C C98G G120C C123U, the “polymerase ribozyme fitness (log ratio)” value is reported as -6.14.
With U55G G69A U112C G120C the “polymerase ribozyme fitness (log ratio)” value was -2.49.
With C56A C99U C102U the “polymerase ribozyme fitness (log ratio)” value was -5.77.
With C56U C97U the “polymerase ribozyme fitness (log ratio)” value was -0.00643.
For U59C A83C C101G C115U U116A, the “polymerase ribozyme fitness (log ratio)” value was -5.84.
With C56U A66C U78A the “polymerase ribozyme fitness (log ratio)” value was -2.84.
For C56U G93U U116C, the “polymerase ribozyme fitness (log ratio)” value was -1.7.
With U59A C62G the “polymerase ribozyme fitness (log ratio)” value was -5.21.
In the case of C56G C94U, the “polymerase ribozyme fitness (log ratio)” value is reported as -0.644.
For G58A G120U, the “polymerase ribozyme fitness (log ratio)” value was -0.283.
For G58C U106A, the “polymerase ribozyme fitness (log ratio)” value was 0.185.
For C56G U116C, the “polymerase ribozyme fitness (log ratio)” value was -0.924.
With U59C G120A the “polymerase ribozyme fitness (log ratio)” value was 0.486.
For U55C G120U C123G U131A, the “polymerase ribozyme fitness (log ratio)” value was -0.058.
In the case of U55G C79A C82U, the “polymerase ribozyme fitness (log ratio)” value is reported as -1.09.
With U59A U112A the “polymerase ribozyme fitness (log ratio)” value was 1.47.
For C56U G122A, the “polymerase ribozyme fitness (log ratio)” value was -0.36.
In the case of C56A C115A U126C, the “polymerase ribozyme fitness (log ratio)” value is reported as -1.19.
With C56U G135A the “polymerase ribozyme fitness (log ratio)” value was -0.436.
For C56U G135C, the “polymerase ribozyme fitness (log ratio)” value was 0.59.
In the case of G58C A83C, the “polymerase ribozyme fitness (log ratio)” value is reported as 0.207.
With C56G G71A the “polymerase ribozyme fitness (log ratio)” value was -4.31.
In the case of C56G U96G, the “polymerase ribozyme fitness (log ratio)” value is reported as -1.51.
In the case of C56G G57C G58A C104A, the “polymerase ribozyme fitness (log ratio)” value is reported as -3.33.
With U59A A75U C86A C115G U116A G117A the “polymerase ribozyme fitness (log ratio)” value was -5.94.
For C56A A119G, the “polymerase ribozyme fitness (log ratio)” value was 0.651.
For G57U U59A C124A, the “polymerase ribozyme fitness (log ratio)” value was 1.82.
For G58U C82U C94U C114A, the “polymerase ribozyme fitness (log ratio)” value was -2.23.
For U59A C85U G113A, the “polymerase ribozyme fitness (log ratio)” value was -2.11.
With C56U U78G U106G G110A U129A U131C the “polymerase ribozyme fitness (log ratio)” value was -4.97.
For G57A C72A G120A, the “polymerase ribozyme fitness (log ratio)” value was -0.828.
For G58C C62A C114A G127A U130G, the “polymerase ribozyme fitness (log ratio)” value was -6.59.
For U55G C62A A74U C102A, the “polymerase ribozyme fitness (log ratio)” value was -5.52.
With C56A C73U A84U G120U the “polymerase ribozyme fitness (log ratio)” value was -1.05.
For G58C C76G G77U, the “polymerase ribozyme fitness (log ratio)” value was -0.291.
For G57U G77U G113A G127C, the “polymerase ribozyme fitness (log ratio)” value was -2.59.
With G57U G71A the “polymerase ribozyme fitness (log ratio)” value was -0.471.
In the case of G57A C64G U67G U81A A111U, the “polymerase ribozyme fitness (log ratio)” value is reported as -6.28.
With G58C U112C C114U the “polymerase ribozyme fitness (log ratio)” value was -1.68.
In the case of G57U A83C G93C, the “polymerase ribozyme fitness (log ratio)” value is reported as -1.15.
In the case of U55G G77C A100U G120C U131A, the “polymerase ribozyme fitness (log ratio)” value is reported as 0.465.
In the case of C56A U81A G117A, the “polymerase ribozyme fitness (log ratio)” value is reported as -1.94.
For U55C C85A, the “polymerase ribozyme fitness (log ratio)” value was -2.73.
For C56U G61U U112C A118C, the “polymerase ribozyme fitness (log ratio)” value was -4.53.
With G57A G63U G122A the “polymerase ribozyme fitness (log ratio)” value was -2.81.
With G58A G122A the “polymerase ribozyme fitness (log ratio)” value was -0.321.
For G57U G63C A95C U112A G117A, the “polymerase ribozyme fitness (log ratio)” value was -4.01.
With C56U C73A the “polymerase ribozyme fitness (log ratio)” value was -0.837.
With C56U C98U the “polymerase ribozyme fitness (log ratio)” value was -0.841.
For G57U G77U G122A, the “polymerase ribozyme fitness (log ratio)” value was -1.42.
With C56G C115U G135C the “polymerase ribozyme fitness (log ratio)” value was -1.67.
For G58C C97U, the “polymerase ribozyme fitness (log ratio)” value was -0.321.
In the case of C56A A121G, the “polymerase ribozyme fitness (log ratio)” value is reported as 1.77.
For C56A A121U, the “polymerase ribozyme fitness (log ratio)” value was 1.42.
In the case of G58C C85U C123G U132A, the “polymerase ribozyme fitness (log ratio)” value is reported as 1.38.
With C56G G127U the “polymerase ribozyme fitness (log ratio)” value was -1.1.
For G58A U81A, the “polymerase ribozyme fitness (log ratio)” value was -0.982.
For U55G C73U G110A, the “polymerase ribozyme fitness (log ratio)” value was -0.834.
